{"source": "patent US20180311326A1", "about": "(FRAUNHOFER GESELLSCHAFT ZUR FOERDERUNG DER ANGEWANDTEN …, published 2018)", "binders": {"B1": {"name": "MSP119_3D7-HC1.2-ER (Fc fusion)", "chain": "ISQHQCVKKQCPENSGCFRHLDEREECKCLLNYKQEGDKCVENPNPTCNENNGGCDADATCTEEDSGSSRKKITCECTKPDSYPLFDGIFCSSSNAAAKGPSVFPLAPSSKSTSGGTAALGCLVKDYFPEPVTVSWNSGALTSGVHTFPAVLQSSGLYSLSSVVTVPSSSLGTQTYICNVNHKPSNTKVDKKVEPKSCDKTHTCPPCPAPELLGGPSVFLFPPKPKDTLMISRTPEVTCVVVDVSHEDPEVKFNWYVDGVEVHNAKTKPREEQYNSTYRVVSVLTVLHQDWLNGKEYKCKVSNKAFPAPIEKTISKAKGQPREPQVYTLPPSRDKLTKNQVSLTCLVKGFYPSDIAVEWESNGQPENNYKTTPPVLKSDGSFFLYSKLTVDKSRWQQGNVFSCSVMHEALHNHYTQKSLSLSPGKSEKDEL", "notes": "PfMSP119 (3D7) fused to human IgG1 constant region with E356K and D399K already in the entry; also called MSP119-modHC1_E356K-D399K; PfMSP119_3D7-HC1.2-ER"}}, "biological_target": "T1, AMA1_GKO-HC2.2", "T1 construct": "PfAMA1_GKO fused to human IgG1 constant region with K392D and K409D already in the entry; also called AMA1GKO-modHC2_K392D-K409D; PfAMA1_GKO-HC2.2-ER", "assay": "co-expression in N. benthamiana, SDS-PAGE under reducing and non-reducing conditions", "data": [{"binder": "B1", "values": [{"measurement": "binding result", "result": "binds"}]}]}
